The DeepSol protein solubility set

Test: soluble on expression in E. coli; label from the status in PepcDB or PDB records

Row | Sequence | soluble on expression in E. coli
1 | MNPLHLETLLAIIDEGSFEDAAFALGISPSAVSQRIKALERETGRVVVRRTSPVTATDAGEVLVQSARRMALLQAETNAQLRGRIERIPLSVAVNADSLATWFRRVMASVAEMDNATLHMRIEDESHSLSLLRRGDVLGAVTGEKTPVSGCDSIALGAFRYFAVASPKLLDRYTIDGAVDWERMPVLRFGPRDGLQDRDIKRRLGEVPAGRRVNEIPSSEAFMEAARVGLGWAMLPDIQALPLLDSGEVVMLDSEVHEVPLYWQRWRLESPALERLTQAVVDAALEGLHPLSA | not soluble
2 | MKANRVNIKQAITEGETSLGIEFGSTRIKAVLIDSSFETIASGSYEWENLLEDGFWTYNLVDIITGLRTAYSEMKNEVERNYGITIRKIGSIGISAMMHGYMAFDKTGELLVPFRTWRNSTTGAAAKELTDQFQFNIPERWSIAHLYQAILNEEKHLPRIDYITTLAGYIHWLLTGNKAIGIGDASGMFPIDESTQNYNESMVKQFDELISNKGYPWKLKDILPKVYISGEQAGELTEIGAKILDQSKNLQPGIPICPPEGDAGTGMVATNSVRKRTGNISVGTSVFAMIVLEKELSKVYPEIDLVTTPNGSPVGMVHANNCSSDINAWLGLFREFFEAMGQKIETNKLFEVMLNKALEADSDGGGLLSYGYFSGENITGLEKGRPLFVRSPESRFNLANFMRTHLFTAFAALKIGMDILTKEEKIEIDSILAHGGLFKTPLVGQKIVAAAMNTPVSVMETAGEGGAWGMAILASYMMNKGQEESLEDFLDKKVFEEDAGQEIYPDQLDVEGFEAFIERYKKGLMIEQAAVDHLILEHHHHHH | soluble
3 | MNDSTCPRPCLMKLDLQSSTNKLAFLKDNWPSFGQIESIDRLSETELRCTLCLLDVVLAALAKDECFCPNREIIRLVLTRTYVQNRCELCETEEIRSKLMKGFCTWEKKNGLSRKNEIRRRGISVFYGAILRMLSKVNGKQE | not soluble
4 | MFPNSILGHPPFTPNHQQHNNFFTLSPTVYSHQQLIDAQFNFQNADLSRAVSLQQLTYGNVSPIQTSASPLFRGRKRLSDEKNLPLDGKRQRFHSPHQEPTVVNQIVPLSGERRYSMPPLFHTHYVPDIVRCVPPFREIAFLEPREITLPEAKDKLSQQILELFETCQQQISDLKKKELCRTQLQREIQLLFPQSRLFLVGSSLNGFGTRSSDGDLCLVVKEEPCFFQVNQKTEARHILTLVHKHFCTRLSGYIERPQLIRAKVPIVKFRDKVSCVEFDLNVNNIVGIRNTFLLRTYAYLENRVRPLVLVIKKWASHHQINDASRGTLSSYSLVLMVLHYLQTLPEPILPSLQKIYPESFSPAIQLHLVHQAPCNVPPYLSKNESNLGDLLLGFLKYYATEFDWNSQMISVREAKAIPRPDGIEWRNKYICVEEPFDGTNTARAVHEKQKFDMIKDQFLKSWHRLKNKRDLNSILPVRAA | not soluble
5 | MMLAMIKDPFARLGLDREVLTVSQLNGRARVLLEDVFSSIWVEGEISNLSRPASGHVYFTLKDSGAQVRCALFRQSAARVRQALKDGLQVKVRGKVSLFEGRGDYQLILDTVEPAGDGALRLAFDALKAKLSDEGLFSADRKVALPLHPQRIGIISSPTGAVIRDIISVFRRRAPRVELTLIPTAVQGREAINQIVRALKLADARGFDALILARGGGSLEDLWCFNEEAVARAIDACVTPIVSAVGHETDVSISDFVADVRAPTPSAAAELLAPDSSDLHRRVDNLHRRLVSRMQDRLMRERLRLEGISRRLRHPGERLRQQSQRLDDLDMRLRRAFEQSMHKKQVRLAHMESRLTAQHPGRTLAFLRQRLDALAERLPRAIREQIKVRKLQLQSQMQTLNVVSPLATLGRGYSILLDERGHAIRNAAQTQPGQRLTARLGEGELQVRVEDNHLTPVTLSLLD | not soluble
6 | MREEDRRGGVKLSLTRLFLHERTVEIILRILKAEENGEKIYPLQISTDIGSPYSYVSKVLGELEKCSLVESRPEGRMRVVSLTPYGKVVASMLRDLYTELEKDFNSRMKLDILKDVYSNANGDVRVYLPVMAELEMLAKSTNDGFVVEEAKKLISEVKRKIEGAK | soluble
7 | MAGDYSYDAVKREYVIGSDMTSYAHEVFAAAKPMDIRHNDLPQPDSVIDVTVSTTEWPEGDSNYPINPKLVFTNHSNVAIPGGSTIEFLMPTSSGDIVKDWSGAGLKVIESGHTGSNFSVNGEKKLFHKVAVTLRSTETIPAGGEYSVDMVYYTPVSGVANGVRFIVGNETVGLKKDFPTLPALEHHHHHH | soluble
8 | MSLSMKKERGVVYTPLKISNYIIDSTISEEDIIKNPFLKIVDPACGCGNIIIPCFIYLRNIYIKNLDKINNINKLELREENINYHIIKNNLFGYDVDLNAIKVLTIDLFCESKCFSSNFLCKDFLLDEIGIKYDIFLSNPPYVGLKSINKEYSAILKTMYPSYKDKADISYCFFEKSILCLKIDGKLGFITSRYFLESQSGEELRRILVEKCSLYKIVDFYGIRPFKKAGIDTVMIFLERGIGDRKSIEIIKPKIMKNNRKDEFYYSLFNGTNEGIDKFYINIKALDSKRWILRKDEEIDIINKIEKNSEGHHHHHH | not soluble
9 | MKNLPISIGRIVMQGGHVNFQDQFIQPNYRAYLTDLAGRIGPLNPRKTGEVDIRGAVDKTAPLKISGSVDAFGRELNLDITASAKGIDMPTFSPYSGKYIGYAIEKGKLSVDVHYHVEHGELTAENSIFLDQLTFGEKIESPDAVSIPVNLALALLEHHHHHH | not soluble
10 | ANVKLLLPYILKWEGGFVHDPADAGGATNKGVTIATWKRVGYDKDGDGDIDVEDLKLLTDDDVLNRVLKPFYWDRWKADLIESQKVANILVDWVWGSGKYGIVIPQRILGVQADGIVGNKTLQAVNSADPDELFESIFDARREFLEDITARSIKKYEDSIGRKATERELLRHTNKRFLRGWLNRLEDI | not soluble
11 | MSLKTLMAVGLAAVMSIPFAANAADYVIDTKGAHASINFKVNHLGYSYIKGRFNKFDGEFSYDPANIAASSVVVNVDTRSLDSNHAERDKHIRSADFIDASKYSTATFKSTEVVDKGNGQLEVKGDLTLHGQTKPIVINAEFIGAGQDPWGGQRSGFAGTTRLELKDFGIQVMGASSYVDMELHVEGVQKEGGSHHHHHH | soluble
12 | MKHKTKILHLKNGYDLWGASFGDPNSPIKILALHGGPGDDADEFIVWADQLKKFARIDAEVFVYEQLGSFHSESPDFSKKENVDNYLNYNYYINEVEEVRQLFDLDNFYLAGHSWGGILAYEYMLRSEYRQHLKAGIVFSMNDNIDDYVKQINKELLDMFGEQEFKYMKRIETSGDFSQKHYHQNLIELYKEHLNRDPNYNPDDGMKMMAEDVYHHFQGNNEFVVTGEMKNWNVSSRLPEFDIPVLETVGEFDTMSVESAKRSARKLPRGRFALTENGGHSHAQDHPKEFFEHLGSFIKDVKAGNV | not soluble
13 | MAAPLIPVLTAPTAAGKTALALRLAREYGLEIVAADAFTVYRGLDLGTAKPTPQERASVPHHLLDVVDVTQSYDVAQYAAQAEAAIVDILARGRLPLVVGGTGFYLSALSRGLPLTPPSDPKMRAALEAELQERGLDALLAEIEQANPAEAARMERNPRRVVRALEVYRAAGRFPGEFGYSPPAFQYQVFAFSPPAAEMEQRVQERTAAMLRAGWPQEAQWLAGQVPPEQEPRPTVWQALGYAEALAVAQGRLSLAGAEQAIALATRQYGKRQLTWMRRQLGAEVQSPDAAEAHLRAFLERSGAPSLEHHHHHH | not soluble
14 | MPGRKRKLAAKTAELAPEAGEGSESTSLVGSADASASTAAGVAHTEQQEMPSGGLHESFLESIPPAASFLEELAWVESLASPSYVAYLCQMRRFDDVVAQRRLTTLQRWRQDPAYRQHVSQPIALFFLEQLCSAEFREALRHPAVAALYERQVDLYRRCYGNLLNTGESRVLR | not soluble
15 | MQERVFHVASPKAKLYSEADQAIRERLKDFPKALRAYEMLVQDPEARSGWNMANYLTMRKLGYNDHGRVHALLTGAASVAILALLSEAGVRLDTVESGAGELEDAYVVVLLSTMLHDLGNQVHRFGHEAFGVVLALPILNRILDKLYPDPEQRTAIRALILHGIYSHDLSPEPLTIEAGITAVADGTDITKGRGRKAFQLGSIDIHSISALAVDEVRILKGEKVPVEIQVTMNNSAGIFQVEETLTKKVLKSPLRPYVTVVAMTDGEGGQDQRIVHRVRLHETEDRFVLD | soluble
16 | MNYGFVKVAAAVPRVKVADCKFNSERLEGLITIAEGKGVQILTFPEMCITGYTCGDLFAQQLLLEQAEMALIQILNSTRQLDIISILGMPVVVNSTVINAAVVIQKGKILGVVPKTYLPNYKEFYEQRWFTSALQVSENSVRLCGQIVPMGNNLLFETAETTFGIEICEDLWATVPPSSSLALQGAEIIFNLSADDEGIGKHNYLCSLISQQSARCISGYVFSSSGFGESTTDVVFAGNGLIYENGYLLARSERFCMEEQLIINEIDVECIRAERRVNTTFAANKANCPGKEAVRISTEFVNSKDLNLTRTFNPHPFVPQGNELNSRCEEIFSIQIAGLAQRLLHTGAKTAVIGISGGLDSTLALLVCVKTFDKLGLSRKDILGITMPGFGTTDRTYHNAIDLMNSLGVSIREISIREACIQHFKDIGHDLNIHDVTYENSQARERTQILMDIANQTWGMVIGTGDLSELALGWATYNGDHMSMYGVNAGIPKTLVKHLVQWVAENGMDETSKATLLDIVDTPISPELIPADELEHHHHHH | soluble
17 | MADSLDRLYQAVLAARDLDPATSRTARLFQRGSGKMAKKLAEEAIEVVIDAVNGNREAVIRESADLLYNLTVLWASAGVRPEDVWAEMRRRENLLGIAEKLPKSRIGKPAAPHATRRPVIPQEARAVRKHR | not soluble
18 | MCSTFMHKFYNSFYFGVMLTTRKEEQMLSKIVWSLLKPQLSSRSYLYNKFVVPPLQIIYVQ | soluble
19 | ELISRYPERYCRASSGRCTFAFHPAPEKSFNRGFTNLLLSGKRDTNTLITPESNKSKGAYIGCVTAVNRDKVSIRLRPDNTGAKPSLANGDGLYLLHPDGNMSGTRINVVLPDGSIQVDNPAGIVSGTNVFRNYDIRFEKALSQDNSAVRLIPVSLTLTDVPDGFSLSIEADCYPSAKATITAAHEPATRFDEEQIRKNLTKLGGTPLEAVSVDIRLSHDYFIPLSLIGRLRRDAVQSFIEKASSMPEREEKPVVQRRISPAASSLQEGEQSLSFLANVANKEAETFYRQMGYTSIAPAFEHSHPQGVPLMFSKHCLRYHLGYCPTLQHKESPYREPYYLIHGETRLRLRFDCQHCQMLVYHDSEGIKQT | not soluble
20 | MPAKERFFGFHPCKLVEQVEDCVRDLLEDALDGLETSLFRECALAFDALQENAVTSEHEHAKRLLLQQGLMRLRDALFTAFYDQMDRLQVYLLRNVFHIPPGLRIPNVNTSEDLVENWEQALGIDPSSVQIDANAEDEHAVDQELVALRQSLRVARQRLQRLCRERSVLEGAFHRLEGALQSRLASTLIPTEPEDPSGDCDALAKQVVTIARAVSELEAVVRSCRDQFLGDRSSAASGGAPPSGTVPAAAGGSDVGAQGALVRPPLELERIFDAHTKATRVDSLDAVDALRRALHRSC | not soluble
21 | MGSDKIHHHHHHMKNLEQRKSWYAEVAINYTSQQRKNWYNDVADAYNRTRPRYPQQLVSRVVELAQLPQNAAILEVGCGPGTATTAFAQLGFSMVCLEPSQNSSQLAQQNCSPYPNVEIINTSFEEWPLEPGKFDAVLAATSFHWVSPEIGYSKAADALKDHCSLILLWNMTPQPEYEVYQRLHEVYQAQAPTLERYEEQEAQEKHLRRFGKAVIDSGRFQDLVSEQLRCDVTYSIDDYLTLLSTLSPYIALDSQQRNSLFTSLRETLEKHCGSSVEISYLSAFHVAKKI | not soluble
22 | RLQSRILAGLLHTVVRYRRKVVRDNLTRCFPEKSLQEIRRIERRFYYNFTYQILSSFKLLTYSQAQLRRHISFENLDVLIRLRAEGHPAILLMMGHFGNWEYFSGSQAIIKDLGLQIYQIFRPLKSTSSDRLMHRIRERFGSRGIAKHDVPRELLRLVRNPIPTETP | not soluble
